According to US20190075806:

Columns and labels:
[1] = biological target: neutral lactase (GODO-YNL2; unfragmented high molecular fraction F-1, about 120 kDa), P00723
Chain of neutral lactase (GODO-YNL2; unfragmented high molecular fraction F-1, about 120 kDa), P00723 (P00723 whole entry, the tested form may be a part): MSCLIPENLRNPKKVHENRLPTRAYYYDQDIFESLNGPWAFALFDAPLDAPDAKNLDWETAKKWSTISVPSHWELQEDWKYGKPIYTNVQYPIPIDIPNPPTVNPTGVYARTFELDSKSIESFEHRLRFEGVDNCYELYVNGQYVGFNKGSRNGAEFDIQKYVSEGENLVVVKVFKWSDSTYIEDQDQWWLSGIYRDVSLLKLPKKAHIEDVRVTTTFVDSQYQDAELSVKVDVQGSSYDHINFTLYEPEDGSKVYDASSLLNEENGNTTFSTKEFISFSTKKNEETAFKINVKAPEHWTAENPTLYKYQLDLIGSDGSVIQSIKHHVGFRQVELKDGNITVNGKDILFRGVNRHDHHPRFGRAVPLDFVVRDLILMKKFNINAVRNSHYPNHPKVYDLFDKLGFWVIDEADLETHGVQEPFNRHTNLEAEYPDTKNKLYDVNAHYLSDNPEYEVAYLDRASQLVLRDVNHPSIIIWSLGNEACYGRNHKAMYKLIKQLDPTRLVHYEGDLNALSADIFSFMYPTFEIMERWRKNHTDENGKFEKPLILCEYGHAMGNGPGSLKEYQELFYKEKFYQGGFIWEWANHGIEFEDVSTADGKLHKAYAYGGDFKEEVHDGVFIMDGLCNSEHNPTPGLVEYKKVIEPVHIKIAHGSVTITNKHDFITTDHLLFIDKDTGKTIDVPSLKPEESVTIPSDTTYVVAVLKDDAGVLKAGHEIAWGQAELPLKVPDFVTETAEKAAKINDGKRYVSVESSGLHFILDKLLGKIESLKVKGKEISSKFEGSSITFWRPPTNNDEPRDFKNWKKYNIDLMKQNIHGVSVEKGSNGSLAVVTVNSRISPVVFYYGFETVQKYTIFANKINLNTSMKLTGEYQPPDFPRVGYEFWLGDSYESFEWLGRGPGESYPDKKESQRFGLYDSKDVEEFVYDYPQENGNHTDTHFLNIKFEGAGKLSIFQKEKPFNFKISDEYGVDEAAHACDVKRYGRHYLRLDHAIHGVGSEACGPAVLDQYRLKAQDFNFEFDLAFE

Chain of BSA, P02769 (P02769 25-607): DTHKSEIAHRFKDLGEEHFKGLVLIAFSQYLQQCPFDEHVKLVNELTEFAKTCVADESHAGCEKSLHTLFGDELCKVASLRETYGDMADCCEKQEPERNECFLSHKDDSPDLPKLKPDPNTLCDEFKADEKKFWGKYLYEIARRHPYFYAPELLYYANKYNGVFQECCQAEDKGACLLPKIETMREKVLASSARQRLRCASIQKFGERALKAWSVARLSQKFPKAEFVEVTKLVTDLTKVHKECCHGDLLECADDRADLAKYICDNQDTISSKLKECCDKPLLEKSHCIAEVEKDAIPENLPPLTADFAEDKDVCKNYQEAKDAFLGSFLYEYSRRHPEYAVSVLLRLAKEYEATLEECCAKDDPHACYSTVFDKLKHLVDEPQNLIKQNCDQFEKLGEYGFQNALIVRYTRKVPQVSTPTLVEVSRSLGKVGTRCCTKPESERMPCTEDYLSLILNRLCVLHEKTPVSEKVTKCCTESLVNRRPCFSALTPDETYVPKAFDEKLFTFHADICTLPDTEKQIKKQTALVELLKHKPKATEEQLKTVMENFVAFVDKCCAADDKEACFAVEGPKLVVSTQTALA

B1: proteinase B derived from Kluyveromyces lactis (mature enzyme) (protein)
chain: SFNTQNSAPWGLARISHREKLNLGSFNKYLYDDDAGKGVTAYVVDTGVNVNHKDFDGRAVWGKTIPKDDPDVDGNGHGTHCAGTIGSVHYGVAKNADIVAVKVLRSNGSGTMSDVVKGVEYVAEAHKKAVEEQKKGFKGSTANMSLGGGKSPALDLAVNAAVKAGVHFAVAAGNENQDACNTSPAAAENAITVGASTLSDERAYFSNWGKCVDIFGPGLNILSTYIGSDTATATLSGTSMATPHVVGLLTYFLSLQPDADSEYFHAAGGITPSQLKKKLIDFSTKNVLSDLPEDTVNY
Q: With B1 as the protein, how does the SUBSTRATE SPECIFICITY (relative protease activity, K. lactis PrB) (Azocasein) read?
A: 1

Q: And the SUBSTRATE SPECIFICITY (relative protease activity, K. lactis PrB) (Azocoll)?
A: 1.9

Q: And the SUBSTRATE SPECIFICITY (relative protease activity, K. lactis PrB) (BSA, P02769)?
A: 0

Q: And the SUBSTRATE SPECIFICITY (relative protease activity, K. lactis PrB) (Casein)?
A: 0

Q: And the SUBSTRATE SPECIFICITY (relative protease activity, K. lactis PrB) (FITC-casein)?
A: 78

Q: And the SUBSTRATE SPECIFICITY (relative protease activity, K. lactis PrB) [1]?
A: 1160
